From PMC11952658 come the findings set out here.

The target in series [1] is N-terminal tagged Halo635 LIG3α (DNA Ligase 3α, nuclear, wild type). The series is described as follows: single-molecule fluorescence colocalisation on tethered DNA (SMADNE, LUMICKS C-trap); nuclear extract diluted 1:10 in 20mM HEPES pH 7.5, 150mM NaCl, 1mM DTT, 5% glycerol, 0.5mg/ml BSA, 1mM trolox; nicked λ DNA with eight observable ligatable nicks tethered between streptavidin beads, 10 pN tension; kymographs at 10 frames per second; proteins at 0.1–2 nM.

Series [2] concerns the target Halo 635-K421A LIG3α (catalytically dead). The description is as above.
Another series deals with Halo 635-ΔZnF LIG3α. The series is described as above.
Series [3] has as its target Cy3-labeled human histone nucleosome core particle reconstituted on the Widom 601 sequence (human). The series is described as follows: single-molecule fluorescence imaging on a tethered nucleosome (SMADNE, LUMICKS C-trap); Cy3-labeled undamaged 601 NCP ligated into 6 kb biotinylated DNA handles and tethered between optically trapped streptavidin beads, 4–5 pN tension; tagged proteins from nuclear extract; lifetimes from …; KD from koff, apparent kon and protein concentration.

Series [4] has as its target N-terminal tagged Halo635 LIG3α (DNA Ligase 3α, nuclear, wild type). In words: single-molecule fluorescence colocalisation on tethered DNA (SMADNE, LUMICKS C-trap); as a1 but on calf-intestinal alkaline phosphatase (CIP) treated nicked λ DNA with 8 observable non-ligatable (5'OH) nick sites, 10 pN tension.
In series [5] the test system is T1, LIG3α WT (nuclear), P49916-3.
T1 sequence: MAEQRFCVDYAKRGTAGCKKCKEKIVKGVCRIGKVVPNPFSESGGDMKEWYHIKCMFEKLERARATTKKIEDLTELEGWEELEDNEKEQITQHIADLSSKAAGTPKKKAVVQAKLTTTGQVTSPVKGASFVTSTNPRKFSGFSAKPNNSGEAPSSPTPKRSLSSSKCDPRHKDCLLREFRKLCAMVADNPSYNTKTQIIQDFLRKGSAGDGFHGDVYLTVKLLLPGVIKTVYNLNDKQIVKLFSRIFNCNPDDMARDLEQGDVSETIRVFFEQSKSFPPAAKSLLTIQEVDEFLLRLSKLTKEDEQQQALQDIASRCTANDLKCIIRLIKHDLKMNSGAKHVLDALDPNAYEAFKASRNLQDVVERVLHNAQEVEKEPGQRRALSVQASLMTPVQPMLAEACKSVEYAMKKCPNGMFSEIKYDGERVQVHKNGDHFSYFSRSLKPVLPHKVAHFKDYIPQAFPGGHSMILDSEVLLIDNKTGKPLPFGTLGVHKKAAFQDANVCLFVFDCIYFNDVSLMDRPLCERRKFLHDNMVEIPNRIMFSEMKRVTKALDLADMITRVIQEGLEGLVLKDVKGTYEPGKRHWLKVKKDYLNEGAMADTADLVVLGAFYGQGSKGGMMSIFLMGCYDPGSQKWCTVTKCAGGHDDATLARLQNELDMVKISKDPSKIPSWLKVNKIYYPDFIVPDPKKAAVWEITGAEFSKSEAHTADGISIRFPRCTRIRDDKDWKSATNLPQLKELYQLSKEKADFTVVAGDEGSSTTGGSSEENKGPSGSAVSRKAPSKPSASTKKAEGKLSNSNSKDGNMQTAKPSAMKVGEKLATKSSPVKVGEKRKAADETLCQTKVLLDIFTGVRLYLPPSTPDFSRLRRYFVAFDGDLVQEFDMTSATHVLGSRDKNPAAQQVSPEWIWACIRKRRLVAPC
The series is described as follows: single-molecule (SMADNE, optical tweezers). The following applies: 20 mM HEPES pH 7.5, 150 mM NaCl, 1 mM DTT, 5% glycerol, 0.5 mg/ml BSA, 1 mM trolox, 25 °C, nuclear extract diluted 1:10, 10 pN (λ DNA) or 4-5 pN (NCP).

Series [6] deals with Cy3-labeled human histone nucleosome core particle reconstituted on the Widom 601 sequence (human). In words: single-molecule fluorescence imaging on a tethered nucleosome (SMADNE, LUMICKS C-trap); as a3 but 601 NCP with one non-ligatable nick (3'OH and 5'OH) at SHL -2.5, 5 pN tension.
Series [7] has the same target. The series is described as follows: single-molecule fluorescence imaging on a tethered nucleosome (SMADNE, LUMICKS C-trap); as a3 but 601 NCP with one non-ligatable nick (3'OH and 5'OH) at SHL 0, 5 pN tension.
Series [8] has the same target. In words: single-molecule fluorescence imaging on a tethered nucleosome (SMADNE, LUMICKS C-trap); as a3 but 601 NCP with one non-ligatable nick (3'OH and 5'OH) at SHL -4.5, 5 pN tension.
The test system of series [9] is T2, LIG3α ZnF-BRCT internal_change, P49916-3.
T2 sequence: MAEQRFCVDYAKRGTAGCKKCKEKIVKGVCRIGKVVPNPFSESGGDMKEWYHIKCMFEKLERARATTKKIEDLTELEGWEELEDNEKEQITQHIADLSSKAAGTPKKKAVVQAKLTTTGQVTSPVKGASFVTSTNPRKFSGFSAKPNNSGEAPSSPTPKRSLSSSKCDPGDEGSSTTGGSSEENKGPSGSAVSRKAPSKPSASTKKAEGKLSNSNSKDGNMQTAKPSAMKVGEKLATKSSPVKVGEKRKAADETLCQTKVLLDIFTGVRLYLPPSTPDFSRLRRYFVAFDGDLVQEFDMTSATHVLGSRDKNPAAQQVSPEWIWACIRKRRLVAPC
In words: single-molecule (SMADNE, optical tweezers). The conditions noted are these: 20 mM HEPES pH 7.5, 150 mM NaCl, 1 mM DTT, 5% glycerol, 0.5 mg/ml BSA, 1 mM trolox, 25 °C, nuclear extract diluted 1:10, 10 pN (λ DNA) or 4-5 pN (NCP).

The target in series [10] is XRCC1-YFP (UniProt P18887). In words: single-molecule (SMADNE, optical tweezers). The following applies: 20 mM HEPES pH 7.5, 150 mM NaCl, 1 mM DTT, 5% glycerol, 0.5 mg/ml BSA, 1 mM trolox, 25 °C, nuclear extract diluted 1:10, 10 pN (λ DNA) or 4-5 pN (NCP).
XRCC1-YFP, sequence (P18887 whole entry): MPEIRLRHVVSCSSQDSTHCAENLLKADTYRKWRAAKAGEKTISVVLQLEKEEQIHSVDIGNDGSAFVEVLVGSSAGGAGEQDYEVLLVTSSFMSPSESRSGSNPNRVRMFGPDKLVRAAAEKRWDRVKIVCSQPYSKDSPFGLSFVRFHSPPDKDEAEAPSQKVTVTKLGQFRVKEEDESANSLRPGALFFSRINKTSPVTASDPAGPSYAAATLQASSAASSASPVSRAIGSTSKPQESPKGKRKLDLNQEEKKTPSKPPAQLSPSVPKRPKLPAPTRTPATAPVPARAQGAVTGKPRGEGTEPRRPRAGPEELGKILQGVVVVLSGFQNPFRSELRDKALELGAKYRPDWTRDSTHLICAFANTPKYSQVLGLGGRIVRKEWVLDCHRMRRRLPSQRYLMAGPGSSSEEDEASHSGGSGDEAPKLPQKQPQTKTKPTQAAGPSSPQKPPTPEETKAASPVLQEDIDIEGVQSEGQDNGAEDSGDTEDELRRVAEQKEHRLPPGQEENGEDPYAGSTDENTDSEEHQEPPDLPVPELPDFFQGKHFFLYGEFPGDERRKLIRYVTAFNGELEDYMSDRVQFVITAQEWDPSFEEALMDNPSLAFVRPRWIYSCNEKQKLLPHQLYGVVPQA
For series [11], the target named is XRCC1-YFP (UniProt P18887). The series is described as follows: single-molecule (SMADNE, optical tweezers). The conditions noted are these: nicks with 3'OH and 5'P; 20 mM HEPES pH 7.5, 150 mM NaCl, 1 mM DTT, 5% glycerol, 0.5 mg/ml BSA, 1 mM trolox, 25 °C; nuclear extract diluted 1:10; 10 pN (λ DNA) or 4-5 pN (NCP).
Another series relates to T3, LIG3α ΔZnF, P49916-3.
T3 sequence: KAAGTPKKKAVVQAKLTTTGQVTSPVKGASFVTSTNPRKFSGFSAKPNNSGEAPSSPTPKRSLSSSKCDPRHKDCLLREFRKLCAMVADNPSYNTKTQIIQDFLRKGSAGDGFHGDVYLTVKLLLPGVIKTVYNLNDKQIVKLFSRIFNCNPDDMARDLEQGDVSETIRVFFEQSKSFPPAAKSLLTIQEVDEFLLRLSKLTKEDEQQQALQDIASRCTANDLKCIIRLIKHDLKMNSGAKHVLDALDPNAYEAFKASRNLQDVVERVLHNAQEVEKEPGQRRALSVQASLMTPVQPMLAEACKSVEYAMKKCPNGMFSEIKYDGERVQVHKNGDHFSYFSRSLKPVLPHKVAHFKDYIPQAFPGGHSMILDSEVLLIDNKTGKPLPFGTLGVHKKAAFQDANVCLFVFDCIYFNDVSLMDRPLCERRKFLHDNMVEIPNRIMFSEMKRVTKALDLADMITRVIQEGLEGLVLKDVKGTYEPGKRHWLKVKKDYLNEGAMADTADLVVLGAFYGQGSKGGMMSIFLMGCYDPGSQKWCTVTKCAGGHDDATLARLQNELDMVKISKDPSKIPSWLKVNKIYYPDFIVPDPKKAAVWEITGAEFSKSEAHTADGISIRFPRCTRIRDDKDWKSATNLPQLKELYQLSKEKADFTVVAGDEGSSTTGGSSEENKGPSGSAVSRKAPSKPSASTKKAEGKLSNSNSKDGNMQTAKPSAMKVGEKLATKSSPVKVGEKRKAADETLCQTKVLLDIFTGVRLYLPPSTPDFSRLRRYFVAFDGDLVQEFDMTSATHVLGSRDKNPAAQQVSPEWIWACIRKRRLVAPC
In words: single-molecule (SMADNE, optical tweezers). The conditions noted are these: nicks with 3'OH and 5'P; 20 mM HEPES pH 7.5, 150 mM NaCl, 1 mM DTT, 5% glycerol, 0.5 mg/ml BSA, 1 mM trolox, 25 °C; nuclear extract diluted 1:10; 10 pN (λ DNA) or 4-5 pN (NCP).

The next series has as its system LIG3α K421A. The series is described as follows: single-molecule (SMADNE, optical tweezers). The following applies: nicks with 3'OH and 5'P; 20 mM HEPES pH 7.5, 150 mM NaCl, 1 mM DTT, 5% glycerol, 0.5 mg/ml BSA, 1 mM trolox, 25 °C; nuclear extract diluted 1:10; 10 pN (λ DNA) or 4-5 pN (NCP).
The mark [12] stands for this setting: 5'-phosphates removed (5'OH at nicks).

C-terminal YFP tagged XRCC1 (X-ray cross complementing protein 1), sequence (P18887 whole entry): as the sequence (P18887 whole entry) above

In series [1], “C-terminal YFP tagged XRCC1 (X-ray cross complementing protein 1) (from UniProt P18887 1-633) (natural protein)” displayed an average lifetime of both proteins together on the DNA of 0.7 s. The percent of binding events colocalized came to 17.1% in series [1], 7.6% in series [2], 16.3% with Halo 635-ΔZnF LIG3α and 9.7% in series [4]. Moreover, the Kd in series [3] amounted to 0.6 nM.
As for single non-ligatable nick, no NCP, the Kd in series [5] (non-ligatable nick) was 2.5 nM.
For “N-terminal tagged Halo635 LIG3α (DNA Ligase 3α, nuclear, wild type) (enzyme)”, the lifetime (Tau) in series [6] was 12.2 s; in [3], 23.7 s; in series [7] it was 10.2 s; in [8] it was 17.3 s. The Kd in [3] was determined as 0.03 nM. Further, in series [3], the lifetime is 23.6 s.
For the substance “CAACTGAGACCATGTACCCAGTTCGAATCGGATGTATATATCTGACACGTGCCTGGAGACTAGGGAGTAATCCCCTTGGCGGTTAAAACGCGGGGGACAGCGCGTACGTGCGTTTAAGCGGTGCTAGAGCTGTCTACGACCAATTGAGCGGCCTCGGCACCGGGATTCTCGATAACTCAGCAATAGTGGGTCTCA / ACCATGAGACCCACTATTGCTGAGTTATCGAGAATCCCGGTGCCGAGGCCGCTCAATTGGTCGTAGACAGCTCTAGCACCGCTTAAACGCACGTACGCGCTGTCCCCCGCGTTTTAACCGCCAAGGGGATTACTCCCTAGTCTCCAGGCACGTGTCAGATATATACATCCGATTCGAACTGGGTACATGGTCTCA [undamaged 601 NCP]”, the values for the Kd (in series [9] (5'-phosphate on both strands); in [5] (5'-phosphate on both strands); in the series with XRCC1-YFP [10] (5'-phosphate on both strands)) were 1.1 nM, 0.03 nM and 0.6 nM, respectively.
In the case of “nicked λ DNA (Nt.BspQI), ligatable nicks”, the Kd turned out to be 4 nM in the series with XRCC1-YFP [11]; 3.2 nM in series [9] (nicks with 3'OH and 5'P); 0.09 nM with LIG3α ΔZnF, P49916-3; 0.1 nM in series [5] (nicks with 3'OH and 5'P); 1.5 nM with XRCC1-YFP [10] (nicks with 3'OH and 5'P); 0.4 nM with LIG3α K421A.
Take “CIP-treated nicked λ DNA, non-ligatable nicks”: the Kd in series [5] (setting [12]) was 1.64 nM; with XRCC1-YFP [10] (setting [12]), 17 nM.
